Data as given in PMC9759531, “USP5-Beclin 1 axis overrides p53-dependent senescence and drives Kras-induced tumorigenicity” (Nature Communications, 2022).

Target: the molecule itself
Assay: SDS-PAGE without DTT (non-reducing) and western blot; purified recombinant His-USP5 or His-USP5^C195A in PBS treated with H2O2 for 10 min; SDS-PAGE with or without DTT (Fig. 5g, Supplementary Fig. S5e); western blot of H2O2-treated protein (Fig. 5k)

B1: His-USP5 (purified recombinant) (enzyme, human, UniProt P45974 1-858, looked up)
chain: MAELSEEALLSVLPTIRVPKAGDRVHKDECAFSFDTPESEGGLYICMNTFLGFGKQYVERHFNKTGQRVYLHLRRTRRPKEEDPATGTGDPPRKKPTRLAIGVEGGFDLSEEKFELDEDVKIVILPDYLEIARDGLGGLPDIVRDRVTSAVEALLSADSASRKQEVQAWDGEVRQVSKHAFSLKQLDNPARIPPCGWKCSKCDMRENLWLNLTDGSILCGRRYFDGSGGNNHAVEHYRETGYPLAVKLGTITPDGADVYSYDEDDMVLDPSLAEHLSHFGIDMLKMQKTDKTMTELEIDMNQRIGEWELIQESGVPLKPLFGPGYTGIRNLGNSCYLNSVVQVLFSIPDFQRKYVDKLEKIFQNAPTDPTQDFSTQVAKLGHGLLSGEYSKPVPESGDGERVPEQKEVQDGIAPRMFKALIGKGHPEFSTNRQQDAQEFFLHLINMVERNCRSSENPNEVFRFLVEEKIKCLATEKVKYTQRVDYIMQLPVPMDAALNKEELLEYEEKKRQAEEEKMALPELVRAQVPFSSCLEAYGAPEQVDDFWSTALQAKSVAVKTTRFASFPDYLVIQIKKFTFGLDWVPKKLDVSIEMPEELDISQLRGTGLQPGEEELPDIAPPLVTPDEPKGSLGFYGNEDEDSFCSPHFSSPTSPMLDESVIIQLVEMGFPMDACRKAVYYTGNSGAEAAMNWVMSHMDDPDFANPLILPGSSGPGSTSAAADPPPEDCVTTIVSMGFSRDQALKALRATNNSLERAVDWIFSHIDDLDAEAAMDISEGRSAADSISESVPVGPKVRDGPGKYQLFAFISHMGTSTMCGHYVCHIKKEGRWVIYNDQKVCASEKPPKDLGYIYFYQRVAS
notes: USP5; Treated with H2O2 before the dimerisation assays; also called recombinant USP5; WT USP5; source: E. coli BL21(DE3), purified (HisTrap HP, Superdex 200 increase)
  stoichiometry N: 2
